From the supplement of paper PMC5998384 come the findings set out here.

Data set [1] has as its system HeLa Kyoto. Kind of data set: solubility change mitosis vs G1/S (difference of NP-40 vs SDS log2 ratios) (log2 ratio difference); higher = more soluble in mitosis.
Data set [2] concerns HeLa Kyoto. Kind of data set: solubility in G1/S (NP-40 vs SDS abundance) (log2 ratio); higher = more soluble. The settings on record: cell cycle stage: G1/S.
Data set [3] relates to HeLa Kyoto. Kind of data set: thermal stability score vs G1/S (z-score of summed log2 fold changes over temperatures); higher = more thermally stable than in G1/S.
The subject of data set [4] is HeLa Kyoto. Briefly: melting temperature (median over replicates), in situ; higher = more thermally stable.
[5] abbreviates: cell cycle stage: early G1 (4.5 h after nocodazole release).
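For melting temperature (median over replicates), in situ in this document: HeLa Kyoto cells synchronized by double thymidine or nocodazole block, proteins quantified by TMT10plex mass spectrometry, three independent biological replicates.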
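For solubility change mitosis vs G1/S (difference of NP-40 vs SDS log2 ratios) in this document: synchronized HeLa Kyoto cells (double thymidine block for G1/S, nocodazole release for mitosis), protein amounts in NP-40 versus SDS lysates quantified by mass spectrometry, three biological replicates.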
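For solubility in G1/S (NP-40 vs SDS abundance) in this document: HeLa Kyoto cells arrested at G1/S by double thymidine block, proteins quantified by TMT10plex mass spectrometry in mild NP-40 versus SDS extracts, three biological replicates.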
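For thermal stability score vs G1/S (z-score of summed log2 fold changes over temperatures) in this document: synchronized HeLa Kyoto cells, proteins quantified by TMT10plex mass spectrometry, three biological replicates, mitosis taken 0.5 h after nocodazole release, G1/S directly after double thymidine block.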

For “MSGLRVYSTSVTGSREIKSQQSEVTRILDGKRIQYQLVDISQDNALRDEMRALAGNPKATPPQIVNGDQYCGDYELFVEAVEQNTLQEFLKLA [SH3BGRL3]”, in the data set on HeLa Kyoto [1], the “solubility change mitosis (log2)” value was -0.132. For the same sequence, in the data set on HeLa Kyoto [2], the “solubility in G1/S (log2)” value is -0.259. Besides, the values for the thermal stability score in the data set with HeLa Kyoto [3] (setting [5]) and in the data set on HeLa Kyoto [3] (cell cycle stage: mitosis) were -2.26 and -3.11, respectively. In addition, the melting temperature in the data set with HeLa Kyoto [4] (cell cycle stage: G1/S) stood at 54.2 °C; in the data set on HeLa Kyoto [4] (cell cycle stage: mitosis) it was 52.6 °C.

For the sequence “MSGLVLGQRDEPAGHRLSQEEILGSTRLVSQGLEALRSEHQAVLQSLSQTIECLQQGGHEEGLVHEKARQLRRSMENIELGLSEAQVMLALASHLSTVESEKQKLRAQVRRLCQENQWLRDELAGTQQRLQRSEQAVAQLEEEKKHLEFLGQLRQYDEDGHTSEEKEGDATKDSLDDLFPNEEEEDPSNGLSRGQGATAAQQGGYEIPARLRTLHNLVIQYAAQGRYEVAVPLCKQALEDLERTSGRGHPDVATMLNILALVYRDQNKYKEAAHLLNDALSIRESTLGPDHPAVAATLNNLAVLYGKRGKYKEAEPLCQRALEIREKVLGTNHPDVAKQLNNLALLCQNQGKYEAVERYYQRALAIYEGQLGPDNPNVARTKNNLASCYLKQGKYAEAETLYKEILTRAHVQEFGSVDDDHKPIWMHAEEREEMSKSRHHEGGTPYAEYGGWYKACKVSSPTVNTTLRNLGALYRRQGKLEAAETLEECALRSRRQGTDPISQTKVAELLGESDGRRTSQEGPGDSVKFEGGEDASVAVEWSGDGSGTLQRSGSLGKIRDVLRRSSELLVRKLQGTEPRPSSSNMKRAASLNYLNQPSAAPLQVSRGLSASTMDLSSSS [KLC4]”, the “solubility change mitosis (log2)” value in the data set on HeLa Kyoto [1] is -0.12. Moreover, the “solubility in G1/S (log2)” value with HeLa Kyoto [2] is 0.299. In addition, the figures for the thermal stability score in the data set on HeLa Kyoto [3] (setting [5]) and in the data set on HeLa Kyoto [3] (cell cycle stage: mitosis) were 0.719 and 1.19, respectively. The melting temperature was determined as 49.8 °C in the data set on HeLa Kyoto [4] (cell cycle stage: G1/S) and 51.3 °C in the data set on HeLa Kyoto [4] (cell cycle stage: mitosis).

In the case of “MSGPVPSRARVYTDVNTHRPREYWDYESHVVEWGNQDDYQLVRKLGRGKYSEVFEAINITNNEKVVVKILKPVKKKKIKREIKILENLRGGPNIITLADIVKDPVSRTPALVFEHVNNTDFKQLYQTLTDYDIRFYMYEILKALDYCHSMGIMHRDVKPHNVMIDHEHRKLRLIDWGLAEFYHPGQEYNVRVASRYFKGPELLVDYQMYDYSLDMWSLGCMLASMIFRKEPFFHGHDNYDQLVRIAKVLGTEDLYDYIDKYNIELDPRFNDILGRHSRKRWERFVHSENQHLVSPEALDFLDKLLRYDHQSRLTAREAMEHPYFYTVVKDQARMGSSSMPGGSTPVSSANMMSGISSVPTPSPLGPLAGSPVIAAANPLGMPVPAAAGAQQ [CSNK2A1]”, in the data set on HeLa Kyoto [1], the “solubility change mitosis (log2)” value stood at 0.0535. In the data set on HeLa Kyoto [2], the “solubility in G1/S (log2)” value is -0.00675. For the same sequence, the values for the thermal stability score with HeLa Kyoto [3] (setting [5]) and in the data set on HeLa Kyoto [3] (cell cycle stage: mitosis) were 1.11 and 1.31, respectively. The melting temperature was 51.5 °C in the data set on HeLa Kyoto [4] (cell cycle stage: G1/S) and 50.7 °C in the data set with HeLa Kyoto [4] (cell cycle stage: mitosis).

Turning to “MSGRGAGGFPLPPLSPGGGAVAAALGAPPPPAGPGMLPGPALRGPGPAGGVGGPGAAAFRPMGPAGPAAQYQRPGMSPGNRMPMAGLQVGPPAGSPFGAAAPLRPGMPPTMMDPFRKRLLVPQAQPPMPAQRRGLKRRKMADKVLPQRIRELVPESQAYMDLLAFERKLDQTIARKRMEIQEAIKKPLTQKRKLRIYISNTFSPSKAEGDSAGTAGTPGGTPAGDKVASWELRVEGKLLDDPSKQKRKFSSFFKSLVIELDKELYGPDNHLVEWHRMPTTQETDGFQVKRPGDLNVKCTLLLMLDHQPPQYKLDPRLARLLGVHTQTRAAIMQALWLYIKHNQLQDGHEREYINCNRYFRQIFSCGRLRFSEIPMKLAGLLQHPDPIVINHVISVDPNDQKKTACYDIDVEVDDPLKAQMSNFLASTTNQQEIASLDVKIHETIESINQLKTQRDFMLSFSTDPQDFIQEWLRSQRRDLKIITDVIGNPEEERRAAFYHQPWAQEAVGRHIFAKVQQRRQELEQVLGIRLT [SMARCD2]”, the “solubility change mitosis (log2)” value in the data set on HeLa Kyoto [1] was found to be 0.00253. Moreover, in the data set on HeLa Kyoto [2], the “solubility in G1/S (log2)” value is 0.445. Further, the thermal stability score in the data set with HeLa Kyoto [3] (setting [5]) came out at 0.352; in the data set on HeLa Kyoto [3] (cell cycle stage: mitosis), 1.15. Further, the melting temperature in the data set with HeLa Kyoto [4] (cell cycle stage: G1/S) was 48 °C; in the data set on HeLa Kyoto [4] (cell cycle stage: mitosis), 49.2 °C.

On to “MSGTKPDILWAPHHVDRFVVCDSELSLYHVESTVNSELKAGSLRLSEDSAATLLSINSDTPYMKCVAWYLNYDPECLLAVGQANGRVVLTSLGQDHNSKFKDLIGKEFVPKHARQCNTLAWNPLDSNWLAAGLDKHRADFSVLIWDICSKYTPDIVPMEKVKLSAGETETTLLVTKPLYELGQNDACLSLCWLPRDQKLLLAGMHRNLAIFDLRNTSQKMFVNTKAVQGVTVDPYFHDRVASFYEGQVAIWDLRKFEKPVLTLTEQPKPLTKVAWCPTRTGLLATLTRDSNIIRLYDMQHTPTPIGDETEPTIIERSVQPCDNYIASFAWHPTSQNRMIVVTPNRTMSDFTVFERISLAWSPITSLMWACGRHLYECTEEENDNSLEKDIATKMRLRALSRYGLDTEQVWRNHILAGNEDPQLKSLWYTLHFMKQYTEDMDQKSPGNKGSLVYAGIKSIVKSSLGMVESSRHNWSGLDKQSDIQNLNEERILALQLCGWIKKGTDVDVGPFLNSLVQEGEWERAAAVALFNLDIRRAIQILNEGASSEKGDLNLNVVAMALSGYTDEKNSLWREMCSTLRLQLNNPYLCVMFAFLTSETGSYDGVLYENKVAVRDRVAFACKFLSDTQLNRYIEKLTNEMKEAGNLEGILLTGLTKDGVDLMESYVDRTGDVQTASYCMLQGSPLDVLKDERVQYWIENYRNLLDAWRFWHKRAEFDIHRSKLDPSSKPLAQVFVSCNFCGKSISYSCSAVPHQGRGFSQYGVSGSPTKSKVTSCPGCRKPLPRCALCLINMGTPVSSCPGGTKSDEKVDLSKDKKLAQFNNWFTWCHNCRHGGHAGHMLSWFRDHAECPVSACTCKCMQLDTTGNLVPAETVQP [MIOS]”, for which the “solubility change mitosis (log2)” value in the data set on HeLa Kyoto [1] worked out at 0.0327. Further, the “solubility in G1/S (log2)” value with HeLa Kyoto [2] is -0.271. Also, the results for the thermal stability score in the data set on HeLa Kyoto [3] (setting [5]) and with HeLa Kyoto [3] (cell cycle stage: mitosis) were -0.829 and -1.48, respectively. The melting temperature in the data set on HeLa Kyoto [4] (cell cycle stage: G1/S) came to 53.9 °C; with HeLa Kyoto [4] (cell cycle stage: mitosis), 53 °C.

On to “MSGWADERGGEGDGRIYVGNLPTDVREKDLEDLFYKYGRIREIELKNRHGLVPFAFVRFEDPRDAEDAIYGRNGYDYGQCRLRVEFPRTYGGRGGWPRGGRNGPPTRRSDFRVLVSGLPPSGSWQDLKDHMREAGDVCYADVQKDGVGMVEYLRKEDMEYALRKLDDTKFRSHEGETSYIRVYPERSTSYGYSRSRSGSRGRDSPYQSRGSPHYFSPFRPY [SRSF9]”, for which the “solubility change mitosis (log2)” value with HeLa Kyoto [1] stood at 0.706. The “solubility in G1/S (log2)” value in the data set on HeLa Kyoto [2] is -0.159. The thermal stability score with HeLa Kyoto [3] (setting [5]) was -3.88; in the data set on HeLa Kyoto [3] (cell cycle stage: mitosis), -3.72. Besides, the melting temperature in the data set on HeLa Kyoto [4] (cell cycle stage: G1/S) was found to be 50 °C; in the data set on HeLa Kyoto [4] (cell cycle stage: mitosis), 50.6 °C.
